Assay results as given in article PMC9859754, “Multivalent interactions facilitate motor-dependent protein accumulation at growing microtubule plus-ends” (Nature Cell Biology, 2022).

Columns and labels:
Details in all cases: both partners purified
[1] = biological target: T1, Full-length S. pombe Mal3, unlabelled (S. pombe, UniProt Q10113 1-308); experiment: scaffold-client recruitment into condensates (spinning disc confocal microscopy); scaffold condensates of 200 nM FL Mal3, 215 nM Tip1 (each tagged with 2 nM FL Mal3:mCherry) or Tea2-Alexa647, with 2 nM Mal3:GFP construct as client; 1x MRB80, 50 mM KCl, 10% PEG6k, 2 mM ATP, 1 mM GTP, 2 mM dithiothreitol, 0.5 mM β-mercaptoethanol; imaged about 30 min after mixing
T1 construct: Mal3 (EB homologue), Schizosaccharomyces pombe, full length; Scaffold (200 nM) in the scaffold-client assay; also the Mal3 of the cryo-ET samples; also called FL-Mal3; FLMal3; source: E. coli ER2566, purified (Talon resin, eluted with 3C protease, SEC); not shown: His8, N-terminal, cleaved
T1 sequence (looked up): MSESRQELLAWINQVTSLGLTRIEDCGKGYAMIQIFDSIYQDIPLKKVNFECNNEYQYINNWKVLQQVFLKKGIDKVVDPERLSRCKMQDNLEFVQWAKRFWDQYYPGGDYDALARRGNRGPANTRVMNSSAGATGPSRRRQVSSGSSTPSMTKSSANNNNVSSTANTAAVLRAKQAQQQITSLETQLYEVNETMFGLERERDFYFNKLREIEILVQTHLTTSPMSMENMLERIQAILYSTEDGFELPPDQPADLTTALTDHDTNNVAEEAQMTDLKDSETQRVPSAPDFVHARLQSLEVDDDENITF

[2] = biological target: T2, Tea2-Alexa647 (S. pombe, UniProt Q1MTQ1 1-628, Alexa Fluor 647 (NHS ester labelling, sites not stated)); experiment: as above
T2 construct: Tea2 (kinesin-7 homologue), Schizosaccharomyces pombe, full length; also called Tea2-647; source: bacterially expressed, purified (Talon resin, eluted with 3C protease, SEC), labelled with Alexa Fluor 647 NHS ester; not shown: Z-tag, N-terminal, cleaved
T2 sequence (looked up): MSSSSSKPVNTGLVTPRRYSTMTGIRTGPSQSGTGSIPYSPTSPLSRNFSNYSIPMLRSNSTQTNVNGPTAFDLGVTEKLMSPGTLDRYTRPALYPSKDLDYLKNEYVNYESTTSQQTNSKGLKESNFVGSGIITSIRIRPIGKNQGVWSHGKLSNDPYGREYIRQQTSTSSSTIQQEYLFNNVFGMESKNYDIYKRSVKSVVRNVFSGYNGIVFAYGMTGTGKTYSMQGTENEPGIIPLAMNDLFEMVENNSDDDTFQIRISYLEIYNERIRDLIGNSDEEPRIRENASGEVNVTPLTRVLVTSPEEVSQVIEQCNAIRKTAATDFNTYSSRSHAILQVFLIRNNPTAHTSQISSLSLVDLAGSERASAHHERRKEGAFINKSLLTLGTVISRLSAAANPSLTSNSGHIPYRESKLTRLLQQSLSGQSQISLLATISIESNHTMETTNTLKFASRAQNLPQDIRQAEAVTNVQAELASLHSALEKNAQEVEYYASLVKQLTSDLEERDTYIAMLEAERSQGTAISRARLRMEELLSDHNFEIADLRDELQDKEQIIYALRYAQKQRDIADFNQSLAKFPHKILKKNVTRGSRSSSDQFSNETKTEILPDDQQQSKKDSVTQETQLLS

[3] = biological target: T2, Tea2-Alexa647; experiment: TIRF microscopy of purified fluorescent proteins on microtubules; plus-end-tracking reconstitution without PEG: 200 nM Mal3 or Mal3 construct, 20 nM Tea2, 150 nM Tip1 together on dynamic microtubules grown from surface-bound GMPCPP seeds; MRB80, 50 mM KCl, 14.5 µM tubulin, 0.5 µM rhodamine tubulin, 1 mM GTP, 2 mM ATP, 0.1% methylcellulose

B1: Full-length Mal3:GFP (natural protein, S. pombe, UniProt Q10113 1-308, looked up)
chain: T1 sequence (looked up)
notes: Mal3 (EB homologue), Schizosaccharomyces pombe, full length; source: E. coli ER2566, purified (Talon resin, eluted with 3C protease, SEC); not shown: His8, N-terminal, cleaved
[1]
  binding result: binds
[2]
  binding result: binds

B2: Mal3-Alexa488 (natural protein, S. pombe, UniProt Q10113 1-308, looked up)
chain: T1 sequence (looked up)
modifications: Alexa Fluor 488 (TFP ester labelling, sites not stated)
notes: Mal3 (EB homologue), Schizosaccharomyces pombe, full length; source: E. coli ER2566, purified (Talon resin, eluted with 3C protease, SEC), labelled with Alexa Fluor 488 TFP ester; not shown: His8, N-terminal, cleaved
[3]
  binding result: binds
